Patent US20250018036A1 (published 2025)

T1: SOX2 peptide on HLA-A*02:01 (human)
T1 peptide: YLPGAEVPEPA

B1: SOX2 TCR #10 (TCR, V domains shown)
Valpha: GEDVEQSLFLSVREGDSSVINCTYTDSSSTYLYWYKQEPGAGLQLLTYIFSNMDMKQDQRLTVLLNKKDKHLSLRIADTQTGDSAIYFCAGPLGGSQGNLIFGKGTKLSVKP
Vbeta: EADIYQTPRYLVIGTGKKITLECSQTMGHDKMYWYQQDPGMELHLIHYSYGVNSTEKGDLSSESTVSRIRTEHFPLTLESARPSHTSQYLCASSRGPEAFFGQGTRLTVV
B2: SOX2 TCR #05 (TCR, V domains shown)
Valpha: AQKITQTQPGMFVQEKEAVTLDCTYDTSDPSYGLFWYKQPSSGEMIFLIYQGSYDQQNATEGRYSLNFQKARKSANLVISASQLGDSAMYFCAMREGMGFQKLVFGTGTRLLVSP
Vbeta: DVKVTQSSRYLVKRTGEKVFLECVQDMDHENMFWYRQDPGLGLRLIYFSYDVKMKEKGDIPEGYSVSREKKERFSLILESASTNQTSMYLCASRPEMGGRGNQPQHFGDGTRLSIL

Molecular target: T1, SOX2 peptide on HLA-A*02:01
Assay: multimer staining
Method: Methods: TCR expression vectors were sequenced after Gibson assembly to confirm successful insertion of the TCR expression cassettes into the pRRLSIN vector. Lentiviral particles were generated using the 293T/17 packaging cell line and the Effectene kit (Qiagen). CD8⁺ T cells were isolated from a healthy donor (18648) using negative magnetic separation (Easy Sep Kit, […] Technologies), stimulated for 4 hours with anti-CD3/CD28 beads (Dynabeads), and transduced with SOX2-TCR-encoding lentiviral particles collected from 293T/17 cells. Transduced CD8⁺ T cells were assessed for tetramer staining on day 5 post transduction. SOX2-TCR⁺ CD8⁺ T cells are sorted for rapid expansion, and assessed for response to different peptide concentrations, and target killing.

| Binder | binding result |
| --- | --- |
| B1 | recognises |
| B2 | recognises |
